PMC12477886

What was measured:
Assay in all cases: BLI
[1] = target: M15 single reverted mutant G51A (light chain A51 reverted to germline G) (human)
[2] = target: M15 triple mutant (light chain S32I, G51A and T57I all reverted to germline) (human)
[3] = target: M15 single reverted mutant T57I (light chain I57 reverted to germline T) (human)
[4] = target: M15 single reverted mutant S32I (light chain I32 reverted to germline S) (human)

“SARS-CoV-2 WA1/2020 S2 protein (stabilized prefusion spike S2 trimer) (from UniProt P0DTC2) (domain or fragment)” gave a fold decrease in binding affinity compared with M15 [1] of 1.88 fold, a fold decrease in binding affinity compared with M15 [2] of 12 fold and a fold decrease in binding affinity compared with M15 [3] of 1.02 fold. It also gave a fold decrease in binding affinity compared with M15 [4] of 1.45 fold.
